± gives the standard error. Fewer inactive variants are shown than the library holds.
B1: glmS ribozyme (parent)
chain: AUAAAAGCGCCAGAACUACAGAAAUGUAGUUGACGAGGAGGAGGUUUAUCGAAUUUUCGGCGGAUGCCUCCAAA

Key:
Settings in all cases: with glucosamine-6-phosphate
glucosamine-6-phosphate [1] = variants of: B1; experiment: self-cleavage kobs at 640 uM GlcN6P; higher = faster cleavage; RNA array
Method in brief: (§1)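 Barcoded ribozyme variants on sequenced MiSeq chips were transcribed in situ by E. coli RNA polymerase and followed at 37 °C through a hybridised Cy3 probe. Glucosamine-6-phosphate at 40 μM to 10 mM in HEPES/KCl/Mg(OAc)2 buffer was flowed in, and tiles were imaged over ~14 h. Signals were normalised to baseline and to non-cleaving reference variants, and per-tile medians were fit to one- or two-exponential decays to give kobs. Weighted Michaelis–Menten fits across concentrations gave kcat and KM.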

glucosamine-6-phosphate [2] = variants of: B1; experiment: self-cleavage kobs at 2500 uM GlcN6P; higher = faster cleavage; RNA array
Method in brief: as §1

glucosamine-6-phosphate [3] = variants of: B1; experiment: self-cleavage kobs at 10000 uM GlcN6P; higher = faster cleavage; RNA array
Method in brief: as §1

Variant	self-cleavage kobs at 640 uM GlcN6P (glucosamine-6-phosphate [1])	self-cleavage kobs at 2500 uM GlcN6P (glucosamine-6-phosphate [2])	self-cleavage kobs at 10000 uM GlcN6P (glucosamine-6-phosphate [3])
G7C G26U G29U U57C A64U U65C	< 1e-05 s⁻¹	–	–
G7U G32C C34U U55C	< 1e-05 s⁻¹	< 1e-05 s⁻¹	–
A12C C70G C71G	5.18e-05 ± 2.5e-05 s⁻¹	4.37e-05 ± 1.9e-05 s⁻¹	–
C8G A12U G43A C67A	< 1e-05 s⁻¹	< 1e-05 s⁻¹	–
G35U A39G G59U	< 1e-05 s⁻¹	–	–
U30G U47C	0.000187 ± 6.5e-05 s⁻¹	0.00013 ± 6.3e-05 s⁻¹	–
C11A G13U C58A G62C	< 1e-05 s⁻¹	–	–
U46A C58A C61U C71G	< 1e-05 s⁻¹	< 1e-05 s⁻¹	–
A6G A12C U56A	5.6e-05 ± 1.6e-05 s⁻¹	0.000102 ± 2.1e-05 s⁻¹	–
C11G G37C C68U	9.13e-05 ± 3.1e-05 s⁻¹	–	–
A12U A15C A48G A52U G66A C70G	< 1e-05 s⁻¹	–	–
G37C U46G C50U	< 1e-05 s⁻¹	–	< 1e-05 s⁻¹
A33U A39C A48U G59U	< 1e-05 s⁻¹	–	–
U30C U49G U55C	< 1e-05 s⁻¹	–	–
C8G A64C C68G	< 1e-05 s⁻¹	< 1e-05 s⁻¹	–
C10G A33U G35C G41U U54C C70U	< 1e-05 s⁻¹	< 1e-05 s⁻¹	–
C58G C61U G63U C68A	0.000162 ± 5.6e-05 s⁻¹	0.000151 ± 4.4e-05 s⁻¹	–
A42U G60C C61U	< 1e-05 s⁻¹	–	–
G13A G51U	< 1e-05 s⁻¹	< 1e-05 s⁻¹	< 1e-05 s⁻¹
A6G G9A G41U A42U C70A	< 1e-05 s⁻¹	< 1e-05 s⁻¹	–
A12G U31A	5.56e-05 ± 9.9e-06 s⁻¹	7.25e-05 ± 1.1e-05 s⁻¹	0.000227 ± 2.4e-05 s⁻¹
A39G U49A G60U	< 1e-05 s⁻¹	< 1e-05 s⁻¹	–
G7U C34U A39C U69C	< 1e-05 s⁻¹	–	–
G7A A33G C68G	0.00031 ± 0.00013 s⁻¹	6.13e-05 ± 2.5e-05 s⁻¹	–
A12G A14G U57A C68A U69G	0.000246 ± 8e-05 s⁻¹	7.01e-05 ± 3.5e-05 s⁻¹	–
G9U U30C C34U C58U G66U C70G	< 1e-05 s⁻¹	–	< 1e-05 s⁻¹

Variant	self-cleavage kobs at 640 uM GlcN6P (glucosamine-6-phosphate [1])	self-cleavage kobs at 2500 uM GlcN6P (glucosamine-6-phosphate [2])	self-cleavage kobs at 10000 uM GlcN6P (glucosamine-6-phosphate [3])
G44U U54G C68A	< 1e-05 s⁻¹	–	–
A33C G38C U55C C61G C71U	< 1e-05 s⁻¹	< 1e-05 s⁻¹	–
G35U C61G	< 1e-05 s⁻¹	–	< 1e-05 s⁻¹
G9A G66U	< 1e-05 s⁻¹	< 1e-05 s⁻¹	–
G60U C67G C68U C70G	< 1e-05 s⁻¹	–	–
G9A A36G A39C C70G	< 1e-05 s⁻¹	< 1e-05 s⁻¹	–
A6U C16U G43U U65G	< 1e-05 s⁻¹	–	–
G43A G44U C68G	< 1e-05 s⁻¹	< 1e-05 s⁻¹	–
A15G G29U C70U	0.000127 ± 2.4e-05 s⁻¹	9.76e-05 ± 3.9e-05 s⁻¹	–
G9A G13C A64G C70U	< 1e-05 s⁻¹	–	–
G9C U69G	< 1e-05 s⁻¹	< 1e-05 s⁻¹	< 1e-05 s⁻¹
U46G U49C U55G	< 1e-05 s⁻¹	< 1e-05 s⁻¹	–
U57A G62A	< 1e-05 s⁻¹	–	–
A6C G13A G63A	< 1e-05 s⁻¹	< 1e-05 s⁻¹	–
G35U A39C C71U	< 1e-05 s⁻¹	< 1e-05 s⁻¹	–
A36C G38C G60C U65A	< 1e-05 s⁻¹	–	–
C8G A33C U45C U56C G59C	< 1e-05 s⁻¹	< 1e-05 s⁻¹	–
G43A A48G U56A C68G	< 1e-05 s⁻¹	–	–
A33U U46C G63A	< 1e-05 s⁻¹	< 1e-05 s⁻¹	–
C8G A36G A42U C67A	< 1e-05 s⁻¹	< 1e-05 s⁻¹	–
U30A G43C C58U U69A	< 1e-05 s⁻¹	< 1e-05 s⁻¹	–
A42C G51A U69A	< 1e-05 s⁻¹	–	–
G44U C58A G59U	< 1e-05 s⁻¹	< 1e-05 s⁻¹	–
G32A G35C A39G	< 1e-05 s⁻¹	< 1e-05 s⁻¹	–
A33C C50U G60U	< 1e-05 s⁻¹	–	–
G37A A42U G44C G59A	< 1e-05 s⁻¹	< 1e-05 s⁻¹	–

Variant	self-cleavage kobs at 640 uM GlcN6P (glucosamine-6-phosphate [1])	self-cleavage kobs at 2500 uM GlcN6P (glucosamine-6-phosphate [2])	self-cleavage kobs at 10000 uM GlcN6P (glucosamine-6-phosphate [3])
A48G U54C C67U	< 1e-05 s⁻¹	–	–
G38C U57G	< 1e-05 s⁻¹	–	–
A6C G59C G60U	< 1e-05 s⁻¹	< 1e-05 s⁻¹	–
G38U U69A	0.000186 ± 9e-05 s⁻¹	–	–
G44U G62A C70U	< 1e-05 s⁻¹	–	–
C16A U31C G41C	< 1e-05 s⁻¹	< 1e-05 s⁻¹	–
C16A A52G C70U	0.00109 ± 0.00029 s⁻¹	–	–
A36G A53U C68A C71G	8.35e-05 ± 2e-05 s⁻¹	–	–
G40U G41U C68U	< 1e-05 s⁻¹	< 1e-05 s⁻¹	–
G7A A33C A39U	< 1e-05 s⁻¹	–	–
U30C G38A G44A	< 1e-05 s⁻¹	< 1e-05 s⁻¹	–
G60U G66A	< 1e-05 s⁻¹	< 1e-05 s⁻¹	–
C16U G51U A64G C68A C71A	< 1e-05 s⁻¹	< 1e-05 s⁻¹	–
A12U U31G G41U	0.00016 ± 5.9e-05 s⁻¹	0.000471 ± 0.00018 s⁻¹	–
G38U U45G G51A	< 1e-05 s⁻¹	< 1e-05 s⁻¹	–
A48C G60C C71G	< 1e-05 s⁻¹	< 1e-05 s⁻¹	–
G7U C10U C16A U30G A48C	< 1e-05 s⁻¹	–	–
C10G U30C G38U	< 1e-05 s⁻¹	–	–
G43C A53U U55A U57A	< 1e-05 s⁻¹	–	–
A12C G29C U30G	0.000163 ± 2.9e-05 s⁻¹	0.000329 ± 8.6e-05 s⁻¹	–
A36G G38U C68G	9.46e-05 ± 3.2e-05 s⁻¹	–	3.1e-05 ± 1.5e-05 s⁻¹
G9U A36G U45C A48C G60U C68G	< 1e-05 s⁻¹	< 1e-05 s⁻¹	< 1e-05 s⁻¹
G51U G66A	< 1e-05 s⁻¹	< 1e-05 s⁻¹	–
C8U G44U G60U	< 1e-05 s⁻¹	–	–
G7C C11G G41A	< 1e-05 s⁻¹	< 1e-05 s⁻¹	–
C11U G62U	< 1e-05 s⁻¹	–	< 1e-05 s⁻¹

Variant	self-cleavage kobs at 640 uM GlcN6P (glucosamine-6-phosphate [1])	self-cleavage kobs at 2500 uM GlcN6P (glucosamine-6-phosphate [2])	self-cleavage kobs at 10000 uM GlcN6P (glucosamine-6-phosphate [3])
C8U A12U A14U G44A C61U	< 1e-05 s⁻¹	< 1e-05 s⁻¹	–
G40C G44C C61U	< 1e-05 s⁻¹	< 1e-05 s⁻¹	–
A15U U31G A48U	< 1e-05 s⁻¹	–	–
A53C U55G C71G	0.000116 ± 3.1e-05 s⁻¹	–	–
A12U U56C C71A	5.04e-05 ± 1.6e-05 s⁻¹	0.00012 ± 4e-05 s⁻¹	–
C8A G35C G66U A72G	< 1e-05 s⁻¹	–	–
A6U G35U G43U	< 1e-05 s⁻¹	< 1e-05 s⁻¹	–
C8U A48G A64G	< 1e-05 s⁻¹	–	–
C10A A14C C67U C68A	0.0002 ± 7e-05 s⁻¹	–	–
C10U G41C G44U U55C C58U	< 1e-05 s⁻¹	–	–
G41C A42C C50G	< 1e-05 s⁻¹	–	–
A48C C70U C71G	< 1e-05 s⁻¹	–	–
G38C U46C G59U U65C C67A	< 1e-05 s⁻¹	< 1e-05 s⁻¹	–
G29C G35C G38U G51U G59A	< 1e-05 s⁻¹	< 1e-05 s⁻¹	–
A14C U56A C71U	0.000174 ± 4.2e-05 s⁻¹	0.000691 ± 0.00019 s⁻¹	–
G7U U30C U45A C71G	< 1e-05 s⁻¹	–	–
C11A G51U A53G A64C U69A	8.76e-05 ± 3.9e-05 s⁻¹	–	5.47e-05 ± 1.5e-05 s⁻¹
U30A G43A	< 1e-05 s⁻¹	–	–
A12C C16G A42G G44C U45G U46A C61A G62C	< 1e-05 s⁻¹	< 1e-05 s⁻¹	–
G9U A36C G43U	< 1e-05 s⁻¹	< 1e-05 s⁻¹	–
U54A U55G C67U	0.000411 ± 0.00015 s⁻¹	0.000903 ± 0.00028 s⁻¹	–
G32U C34G U69G	8.49e-05 ± 2.2e-05 s⁻¹	–	–
U31C A36C U45G U65G C71U	< 1e-05 s⁻¹	< 1e-05 s⁻¹	–
G9C C16A G63C C71G	< 1e-05 s⁻¹	–	–
A42G C68G	7.72e-05 ± 2.8e-05 s⁻¹	0.000308 ± 7.3e-05 s⁻¹	0.000128 ± 2.2e-05 s⁻¹
C16U A53U G66C	9.89e-05 ± 2.1e-05 s⁻¹	0.000105 ± 2.8e-05 s⁻¹	0.000199 ± 5.3e-05 s⁻¹

Variant	self-cleavage kobs at 640 uM GlcN6P (glucosamine-6-phosphate [1])	self-cleavage kobs at 2500 uM GlcN6P (glucosamine-6-phosphate [2])	self-cleavage kobs at 10000 uM GlcN6P (glucosamine-6-phosphate [3])
G32U C34U A36G G51A C70G	8.6e-05 ± 3.2e-05 s⁻¹	–	–
C11G A15C U30G A52U	< 1e-05 s⁻¹	–	–
C11A G35C C50U C58U	< 1e-05 s⁻¹	< 1e-05 s⁻¹	–
A12C G41U U46G	8.69e-05 ± 1.8e-05 s⁻¹	7.37e-05 ± 2.8e-05 s⁻¹	–
A12G G29A U30A U45G G62A C71U	< 1e-05 s⁻¹	< 1e-05 s⁻¹	–
C8G C50G C61U A64U	0.00078 ± 0.00019 s⁻¹	0.00023 ± 6.3e-05 s⁻¹	–
C11A G63A C67A U69C	< 1e-05 s⁻¹	–	–
G32C G44U A64C	< 1e-05 s⁻¹	–	< 1e-05 s⁻¹
C10A G41C C58U	< 1e-05 s⁻¹	–	–
A6U C11A A33G U47C U49A G51U A53U G59U	< 1e-05 s⁻¹	< 1e-05 s⁻¹	–
G13U G60U C70U	< 1e-05 s⁻¹	–	–
A12U A14C G29C	4.97e-05 ± 2e-05 s⁻¹	0.000232 ± 7.7e-05 s⁻¹	–
C16U C58U G63U	< 1e-05 s⁻¹	–	< 1e-05 s⁻¹
A12U A36C C68G	0.000173 ± 5.8e-05 s⁻¹	–	–
A14C C34G A36C G59C	< 1e-05 s⁻¹	–	–
G32U A33U C34A A36C	< 1e-05 s⁻¹	< 1e-05 s⁻¹	–
A14C C16G G29U	0.000294 ± 5.1e-05 s⁻¹	0.000837 ± 0.00017 s⁻¹	–
A6C C10G G41U	< 1e-05 s⁻¹	< 1e-05 s⁻¹	–
A14C U56G C67G	0.000636 ± 0.00024 s⁻¹	0.00165 ± 0.00073 s⁻¹	0.0219 ± 0.0084 s⁻¹
G9C C67A C71U	< 1e-05 s⁻¹	< 1e-05 s⁻¹	–
G7A A39G U49C U69A	< 1e-05 s⁻¹	< 1e-05 s⁻¹	< 1e-05 s⁻¹
C8A C34A G59U A64G	< 1e-05 s⁻¹	< 1e-05 s⁻¹	–
A12C A14C G32A G44C C70G	< 1e-05 s⁻¹	< 1e-05 s⁻¹	–
U30A G32A G37U U49C A64U	< 1e-05 s⁻¹	–	–
